PMC11300964, “Chaperone BiP controls ER stress sensor Ire1 through interactions with its oligomers” (Life Science Alliance, 2024)
Where “and” joins values, the source holds several entries; their conditions need not be identical. Equal entries are not always repeated.

What was measured:
[1] = target: the molecule itself; assay: MST; 0.5 μM FITC-labelled Ire1-LD titrated with unlabelled Ire1-LD; HMK buffer with 1 mM TCEP or 5 mM DTT; apparent dimerization constant (dimer to monomers); no substrate peptide
[2] = target: the molecule itself; assay: native MS; 5 μM Ire1-LD sprayed from 100 mM ammonium acetate at pH 6.8; no substrate peptide
turbidity (OD at 400 nm) = target: the molecule itself; assay: turbidity (OD at 400 nm)
co-sedimentation = target: the molecule itself; assay: co-sedimentation

B1: human Ire1α luminal domain (aa 24–449), wild type (domain or fragment, UniProt O75460 24-449, looked up)
chain: STVTLPETLLFVSTLDGSLHAVSKRTGSIKWTLKEDPVLQVPTHVEEPAFLPDPNDGSLYTLGSKNNEGLTKLPFTIPELVQASPCRSSDGILYMGKKQDIWYVIDLLTGEKQQTLSSAFADSLCPSTSLLYLGRTEYTITMYDTKTRELRWNATYFDYAASLPEDDVDYKMSHFVSNGDGLVVTVDSESGDVLWIQNYASPVVAFYVWQREGLRKVMHINVAVETLRYLTFMSGEVGRITKWKYPFPKETEAKSKLTPTLYVGKYSTSLYASPSMVHEGVAVVPRGSTLPLLEGPQTDGVTIGDKGECVITPSTDVKFDPGLKSKNKLNYLRNYWLLIGHHETPLSASTKMLERFPNNLPKHRENVIPADSEKKSFEEVINLVDQTSENAPTTVSRDVEEKPAHAPARPEAPVDSMLKDMATIIL
modifications: FITC-labelled for the copy held at fixed concentration in MST and for fluorescence polarisation; unlabelled elsewhere
notes: human Ire1α luminal domain (Ire1-LD), aa 24-449 of UniProt O75460; Cloned into the pET His6 TEV LIC vector (Addgene 29653); 15N- or 13C,15N-labelled for NMR; also called Ire1-LD; WT Ire1-LD; source: E. coli BL21 (DE3), purified (HisTrap HP nickel column, dialysis)
In the case of B1, the Kd [1] is reported as 500 ± 170 nM and the “stoichiometry N” value [2] is reported as 2 and 4.

B2: human Ire1α luminal domain (aa 24–449), 359WLLI362 to GSSG variant (domain or fragment, UniProt O75460 24-449, looked up)
chain: STVTLPETLLFVSTLDGSLHAVSKRTGSIKWTLKEDPVLQVPTHVEEPAFLPDPNDGSLYTLGSKNNEGLTKLPFTIPELVQASPCRSSDGILYMGKKQDIWYVIDLLTGEKQQTLSSAFADSLCPSTSLLYLGRTEYTITMYDTKTRELRWNATYFDYAASLPEDDVDYKMSHFVSNGDGLVVTVDSESGDVLWIQNYASPVVAFYVWQREGLRKVMHINVAVETLRYLTFMSGEVGRITKWKYPFPKETEAKSKLTPTLYVGKYSTSLYASPSMVHEGVAVVPRGSTLPLLEGPQTDGVTIGDKGECVITPSTDVKFDPGLKSKNKLNYLRNYGSSGGHHETPLSASTKMLERFPNNLPKHRENVIPADSEKKSFEEVINLVDQTSENAPTTVSRDVEEKPAHAPARPEAPVDSMLKDMATIIL
notes: human Ire1α luminal domain (Ire1-LD), aa 24-449 of UniProt O75460, with WLLI 359-362 replaced by GSSG at the oligomerisation interface; Methods and one legend print 358WLLI362; also called 358WLLI362 to GSSG; source: E. coli BL21 (DE3), expressed overnight at 20°C, purified (HisTrap HP nickel column)
B2: binds (turbidity (OD at 400 nm)).

B3: human Ire1α luminal domain (aa 24–449), 315LL316 to DA variant (domain or fragment, UniProt O75460 24-449, looked up)
chain: STVTLPETLLFVSTLDGSLHAVSKRTGSIKWTLKEDPVLQVPTHVEEPAFLPDPNDGSLYTLGSKNNEGLTKLPFTIPELVQASPCRSSDGILYMGKKQDIWYVIDLLTGEKQQTLSSAFADSLCPSTSLLYLGRTEYTITMYDTKTRELRWNATYFDYAASLPEDDVDYKMSHFVSNGDGLVVTVDSESGDVLWIQNYASPVVAFYVWQREGLRKVMHINVAVETLRYLTFMSGEVGRITKWKYPFPKETEAKSKLTPTLYVGKYSTSLYASPSMVHEGVAVVPRGSTLPDAEGPQTDGVTIGDKGECVITPSTDVKFDPGLKSKNKLNYLRNYWLLIGHHETPLSASTKMLERFPNNLPKHRENVIPADSEKKSFEEVINLVDQTSENAPTTVSRDVEEKPAHAPARPEAPVDSMLKDMATIIL
notes: human Ire1α luminal domain (Ire1-LD), aa 24-449 of UniProt O75460, with LL 315-316 replaced by DA; source: E. coli BL21 (DE3), purified (HisTrap HP nickel column)
B3: binds (co-sedimentation).
